Results reported in ChEMBL document CHEMBL1127724, “Design and synthesis of 6-fluoropurine acyclonucleosides : potential prodrugs of acyclovir and ganciclovir” (Bioorg Med Chem Lett, 1994).

Legend:
[1] = substrate: Nc1ncnc2c1ncn2[C@@H]1O[C@H](CO)[C@@H](O)[C@H]1O; test: Vmax for Calf intestinal mucosa adenosine deaminase was determined
[2] = substrate: Nc1ncnc2c1ncn2[C@@H]1O[C@H](CO)[C@@H](O)[C@H]1O; test: Michaelis-Menten constant for Calf intestinal mucosa adenosine deaminase was determined

B1: Adenosine deaminase (Bos taurus), P56658 (protein)
chain: MAQTPAFNKPKVELHVHLDGAIKPETILYYGRKRGIALPADTPEELQNIIGMDKPLSLPEFLAKFDYYMPAIAGCREAVKRIAYEFVEMKAKDGVVYVEVRYSPHLLANSKVEPIPWNQAEGDLTPDEVVSLVNQGLQEGERDFGVKVRSILCCMRHQPSWSSEVVELCKKYREQTVVAIDLAGDETIEGSSLFPGHVKAYAEAVKSGVHRTVHAGEVGSANVVKEAVDTLKTERLGHGYHTLEDATLYNRLRQENMHFEVCPWSSYLTGAWKPDTEHPVVRFKNDQVNYSLNTDDPLIFKSTLDTDYQMTKNEMGFTEEEFKRLNINAAKSSFLPEDEKKELLDLLYKAYGMPSPASAEQCL
Vmax (uM min-1 unit-1) [1]: 0.76
Km [2]: 50.5 µM
